From paper PMC4207802

Legend:
[1] = target: T3 – TSHR-LRR11/FSHR (human) (UniProt P16473)
[2] = target: T4 – TSHR-LRR10/FSHR (human) (UniProt P16473)
[3] = target: T1 – FSHR-HinR/TSHR (human) (UniProt P16473)

Substance: recombinant human thyrotropin (rhTSH) (from UniProt P01215 25-116; P01222 21-132) (ligand)
- EC50 of intracellular cAMP accumulation in transfected COS-7 cells, rhTSH dose-response [1]: 3.8 mU/ml
- intracellular cAMP accumulation in transfected COS-7 cells, rhTSH 0–100 mU/ml; value at 100 mU/ml [1]: 32.9 nM
- EC50 of intracellular cAMP accumulation in transfected COS-7 cells, rhTSH dose-response [2]: 11.6 mU/ml
- intracellular cAMP accumulation in transfected COS-7 cells, rhTSH 0–100 mU/ml; value at 100 mU/ml [2]: 36.6 nM
- EC50 of intracellular cAMP accumulation in transfected COS-7 cells, rhTSH dose-response [3]: 0.4 mU/ml
- intracellular cAMP accumulation in transfected COS-7 cells, rhTSH 0–100 mU/ml; value at 100 mU/ml [3]: 57.2 nM
